In the supplement of paper PMC10567573:

B1: ANKRD9 (parent)
chain: VGAAGSARQELLGDRPRWQRLLGE

Variants of: B1
Assay: protein stability index of a GFP-peptide fusion (GPS, HEK-293T) (PSI 1-6); higher = more stable
Conditions: c terminus: a fixed tail appended
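Also: lentivirally expressed fusions sorted by FACS into six bins by GFP to DsRed ratio, PSI derived from sequencing read proportions per bin multiplied by bin number.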

First: VGAAGSAKQELLGDRPRWQRLLGE [R8K]
Second: VGAAGSAHQELLGDRPRWQRLLGE [R8H]
The protein stability index of the first is lower: 3.15 for the first, 3.39 for the second.

Compared with VGAAGSANQELLGDRPRWQRLLGE [R8N], VGAAGSALQELLGDRPRWQRLLGE [R8L] is lower in protein stability index: 4.03 for the first, 2.92 for the second.

Compared with VGAAGSAEQELLGDRPRWQRLLGE [R8E], VGAAGSAAQELLGDRPRWQRLLGE [R8A] is lower in protein stability index: 4.01 for the first, 2.96 for the second.

Going from VGAAGSAPQELLGDRPRWQRLLGE [R8P] to VGAAGSAIQELLGDRPRWQRLLGE [R8I], the protein stability index rises from 2.94 to 3.08.

Compared with VGAAGSACQELLGDRPRWQRLLGE [R8C], VGAAGSAWQELLGDRPRWQRLLGE [R8W] is lower in protein stability index: 3.02 for the first, 2.35 for the second.

First: VGAAGSASQELLGDRPRWQRLLGE [R8S]
Second: VGAAGSAYQELLGDRPRWQRLLGE [R8Y]
The protein stability index of the first is higher: 3.47 for the first, 2.96 for the second.

First: VGAAGSAFQELLGDRPRWQRLLGE [R8F]
Second: VGAAGSARQEKLGDRPRWQRLLGE [L11K]
The protein stability index of the first is lower: 2.5 for the first, 3.69 for the second.

Going from VGAAGSARQEFLGDRPRWQRLLGE [L11F] to VGAAGSARQEPLGDRPRWQRLLGE [L11P], the protein stability index falls from 4.5 to 3.86.

Going from VGAAGSARQEYLGDRPRWQRLLGE [L11Y] to VGAAGSARQEGLGDRPRWQRLLGE [L11G], the protein stability index falls from 3.5 to 3.43.

First: VGAAGSARQESLGDRPRWQRLLGE [L11S]
Second: VGAAGSARQECLGDRPRWQRLLGE [L11C]
The protein stability index of the first is higher: 4.02 for the first, 3.22 for the second.

Going from VGAAGSARQETLGDRPRWQRLLGE [L11T] to VGAAGSARQEQLGDRPRWQRLLGE [L11Q], the protein stability index rises from 3.6 to 3.8.

Going from VGAAGSARQEILGDRPRWQRLLGE [L11I] to VGAAGSARQEMLGDRPRWQRLLGE [L11M], the protein stability index rises from 3.3 to 3.77.

Compared with VGAAGSARQERLGDRPRWQRLLGE [L11R], VGAAGSARQENLGDRPRWQRLLGE [L11N] is higher in protein stability index: 2.48 for the first, 3.71 for the second.

Going from VGAAGSARQEELGDRPRWQRLLGE [L11E] to VGAAGSARQEVLGDRPRWQRLLGE [L11V], the protein stability index falls from 4.13 to 3.98.

Going from VGAAGSARQEHLGDRPRWQRLLGE [L11H] to VGAAGSARQEWLGDRPRWQRLLGE [L11W], the protein stability index falls from 2.85 to 2.61.

Compared with VGAAGSARQELLQDRPRWQRLLGE [G13Q], VGAAGSARQELLSDRPRWQRLLGE [G13S] is lower in protein stability index: 2.76 for the first, 2.72 for the second.

Going from VGAAGSARQELLMDRPRWQRLLGE [G13M] to VGAAGSARQELLYDRPRWQRLLGE [G13Y], the protein stability index falls from 3.02 to 2.77.

Compared with VGAAGSARQELLEDRPRWQRLLGE [G13E], VGAAGSARQELLTDRPRWQRLLGE [G13T] is lower in protein stability index: 3.92 for the first, 2.97 for the second.

Going from VGAAGSARQELLCDRPRWQRLLGE [G13C] to VGAAGSARQELLPDRPRWQRLLGE [G13P], the protein stability index rises from 2.77 to 3.7.

First: VGAAGSARQELLLDRPRWQRLLGE [G13L]
Second: VGAAGSARQELLHDRPRWQRLLGE [G13H]
The protein stability index of the first is lower: 2.66 for the first, 3.46 for the second.

Compared with VGAAGSARQELLNDRPRWQRLLGE [G13N], VGAAGSARQELLIDRPRWQRLLGE [G13I] is lower in protein stability index: 3.55 for the first, 2.86 for the second.

Compared with VGAAGSARQELLWDRPRWQRLLGE [G13W], VGAAGSARQELLKDRPRWQRLLGE [G13K] is higher in protein stability index: 1.9 for the first, 3.39 for the second.

Compared with VGAAGSARQELLVDRPRWQRLLGE [G13V], VGAAGSARQELLRDRPRWQRLLGE [G13R] is higher in protein stability index: 2.63 for the first, 2.81 for the second.

Going from VGAAGSARQELLDDRPRWQRLLGE [G13D] to VGAAGSARQELLADRPRWQRLLGE [G13A], the protein stability index rises from 2.73 to 3.9.

Compared with VGAAGSARQELLGDRPDWQRLLGE [R17D], VGAAGSARQELLGDRPFWQRLLGE [R17F] is lower in protein stability index: 3.41 for the first, 1.94 for the second.

Compared with VGAAGSARQELLGDRPIWQRLLGE [R17I], VGAAGSARQELLGDRPPWQRLLGE [R17P] is higher in protein stability index: 2.83 for the first, 4.29 for the second.

Going from VGAAGSARQELLGDRPSWQRLLGE [R17S] to VGAAGSARQELLGDRPQWQRLLGE [R17Q], the protein stability index falls from 4.09 to 3.47.

Compared with VGAAGSARQELLGDRPHWQRLLGE [R17H], VGAAGSARQELLGDRPKWQRLLGE [R17K] is lower in protein stability index: 4.01 for the first, 3.53 for the second.

Going from VGAAGSARQELLGDRPGWQRLLGE [R17G] to VGAAGSARQELLGDRPAWQRLLGE [R17A], the protein stability index falls from 3.5 to 3.33.

Compared with VGAAGSARQELLGDRPVWQRLLGE [R17V], VGAAGSARQELLGDRPEWQRLLGE [R17E] is higher in protein stability index: 3 for the first, 3.81 for the second.

First: VGAAGSARQELLGDRPNWQRLLGE [R17N]
Second: VGAAGSARQELLGDRPLWQRLLGE [R17L]
The protein stability index of the first is higher: 3.29 for the first, 2.73 for the second.

First: VGAAGSARQELLGDRPMWQRLLGE [R17M]
Second: VGAAGSARQELLGDRPTWQRLLGE [R17T]
The protein stability index of the first is lower: 2.72 for the first, 3.43 for the second.

First: VGAAGSARQELLGERPRWQRLLGE [D14E]
Second: VGAAGSARQELLGQRPRWQRLLGE [D14Q]
The protein stability index of the first is higher: 3.27 for the first, 2.35 for the second.

Compared with VGAAGSARQELLGPRPRWQRLLGE [D14P], VGAAGSARQELLGGRPRWQRLLGE [D14G] is higher in protein stability index: 3.13 for the first, 3.18 for the second.

Compared with VGAAGSARQELLGHRPRWQRLLGE [D14H], VGAAGSARQELLGIRPRWQRLLGE [D14I] is lower in protein stability index: 3.24 for the first, 2.56 for the second.

First: VGAAGSARQELLGRRPRWQRLLGE [D14R]
Second: VGAAGSARQELLGYRPRWQRLLGE [D14Y]
The protein stability index of the first is lower: 2.75 for the first, 2.86 for the second.

Going from VGAAGSARQELLGSRPRWQRLLGE [D14S] to VGAAGSARQELLGLRPRWQRLLGE [D14L], the protein stability index falls from 3.25 to 2.36.

Compared with VGAAGSARQELLGCRPRWQRLLGE [D14C], VGAAGSARQELLGTRPRWQRLLGE [D14T] is higher in protein stability index: 1.39 for the first, 2.94 for the second.

Going from VGAAGSARQELLGFRPRWQRLLGE [D14F] to VGAAGSARQELLGNRPRWQRLLGE [D14N], the protein stability index rises from 2.12 to 2.6.

Going from VGAAGSARQELLGVRPRWQRLLGE [D14V] to VGAAGSARQELLGARPRWQRLLGE [D14A], the protein stability index rises from 2.27 to 2.83.

First: VGAAGSARQELLGMRPRWQRLLGE [D14M]
Second: VGAAGSNRQELLGDRPRWQRLLGE [A7N]
The protein stability index of the first is lower: 2.76 for the first, 3.74 for the second.

First: VGAAGSQRQELLGDRPRWQRLLGE [A7Q]
Second: VGAAGSWRQELLGDRPRWQRLLGE [A7W]
The protein stability index of the first is higher: 4.21 for the first, 2.53 for the second.

First: VGAAGSIRQELLGDRPRWQRLLGE [A7I]
Second: VGAAGSMRQELLGDRPRWQRLLGE [A7M]
The protein stability index of the first is lower: 3.49 for the first, 3.87 for the second.

First: VGAAGSTRQELLGDRPRWQRLLGE [A7T]
Second: VGAAGSSRQELLGDRPRWQRLLGE [A7S]
The protein stability index of the first is higher: 3.62 for the first, 2.93 for the second.

First: VGAAGSPRQELLGDRPRWQRLLGE [A7P]
Second: VGAAGSLRQELLGDRPRWQRLLGE [A7L]
The protein stability index of the first is lower: 2.98 for the first, 4.03 for the second.

First: VGAAGSYRQELLGDRPRWQRLLGE [A7Y]
Second: VGAAGSRRQELLGDRPRWQRLLGE [A7R]
The protein stability index of the first is lower: 2.43 for the first, 3.08 for the second.

Going from VGAAGSKRQELLGDRPRWQRLLGE [A7K] to VGAAGSVRQELLGDRPRWQRLLGE [A7V], the protein stability index falls from 2.94 to 2.73.
